Results published in patent US20240391992A1 (Eli Lilly, published 2024).

How the values were obtained:
[1] = molecular target: cynomolgus (cyno) XCL1 (cynomolgus); experiment: flow cytometry, 293T cells with 1 ug/mL chemokine and 100 nM isotype control antibody, anti-human-Fc/PE
mouse XCL1 (mouse) = mouse XCL1 (mouse) (UniProt P47993); experiment: as above
human XCL1 (human) = human XCL1 (human) (UniProt P47992); experiment: as above
human XCL2 (human) = human XCL2 (human) (UniProt Q9UBD3); experiment: as above
rat XCL1 (rat) = rat XCL1 (rat) (UniProt P51672); experiment: as above
human XCR1 = molecular target: T1, human XCR1 (human, UniProt P46094 1-333); experiment: cell-based or functional assay
T1 sequence (looked up): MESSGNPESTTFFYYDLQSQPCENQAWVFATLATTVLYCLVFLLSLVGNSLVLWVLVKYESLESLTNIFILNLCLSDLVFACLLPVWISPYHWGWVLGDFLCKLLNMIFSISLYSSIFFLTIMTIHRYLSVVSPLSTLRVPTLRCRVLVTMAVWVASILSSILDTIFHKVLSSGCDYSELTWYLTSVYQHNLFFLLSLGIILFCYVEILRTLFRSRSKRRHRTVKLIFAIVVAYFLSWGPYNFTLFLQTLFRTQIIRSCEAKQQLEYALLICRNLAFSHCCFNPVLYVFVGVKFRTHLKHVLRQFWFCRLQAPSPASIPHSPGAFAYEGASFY

Sequence of mouse XCL1 (mouse) (P47993 22-114 limits assumed): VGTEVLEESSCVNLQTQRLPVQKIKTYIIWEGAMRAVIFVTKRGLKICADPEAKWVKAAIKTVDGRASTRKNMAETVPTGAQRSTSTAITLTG
Sequence of rat XCL1 (rat) (P51672 22-114 limits assumed): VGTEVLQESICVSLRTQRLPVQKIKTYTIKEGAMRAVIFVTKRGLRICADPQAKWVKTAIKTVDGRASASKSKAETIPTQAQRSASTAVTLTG

| Molecule | MFI [1] [MFI] | MFI (mouse XCL1 (mouse)) [MFI] | MFI (human XCL1 (human)) [MFI] | MFI (human XCL2 (human)) [MFI] | MFI (rat XCL1 (rat)) [MFI] | GeoMean EC50 (nM), migration of XCR1-expressing Ba/F3 cells (Boyden chamber) (human XCR1) [nM] |
| --- | --- | --- | --- | --- | --- | --- |
| hIgG1-AAS isotype control antibody | 8.4 | 8 | 7.6 | 8.6 | 8.2 | – |
| human XCL1 (ligand) VGSEVSDKRTCVSLTTQRLPVSRIKTYTITEGSLRAVIFITKRGLKVCADPQATWVRDVVRSMDRKSNTRNNMIQTKPTGTQQSTNTAVTLTG | – | – | – | – | – | 858 |
| Human XCL1 CC3 (ligand) VGSEVSDKRTCVSLTTQRLPCSRIKTYTITEGSLRAVIFITKRGLKVCADPQATWVRDCVRSMDRKSNTRNNMIQTKPTGTQQSTNTAVTLTG | – | – | – | – | – | 115 |
